Measurements from patent publication US20260183373A1.

What was measured:
Aβ(1-40) [1] = target: Aβ(1-40) (UniProt P05067)
Aβ(1-42) [2] = target: Aβ(1-42) (UniProt P05067)
Aβ(1-40) [3] = target: Aβ(1-40) (UniProt P05067); test: cell-based or functional assay
Aβ(1-42) [4] = target: Aβ(1-42) (UniProt P05067); test: cell-based or functional assay
Aβ(1-40) [5] = target: Aβ(1-40) (UniProt P05067); remark: listed apart in the source
Aβ(1-42) [6] = target: Aβ(1-42) (UniProt P05067); remark: listed apart in the source

neprolysin (NEP), sequence (P08473 52-750 limits assumed): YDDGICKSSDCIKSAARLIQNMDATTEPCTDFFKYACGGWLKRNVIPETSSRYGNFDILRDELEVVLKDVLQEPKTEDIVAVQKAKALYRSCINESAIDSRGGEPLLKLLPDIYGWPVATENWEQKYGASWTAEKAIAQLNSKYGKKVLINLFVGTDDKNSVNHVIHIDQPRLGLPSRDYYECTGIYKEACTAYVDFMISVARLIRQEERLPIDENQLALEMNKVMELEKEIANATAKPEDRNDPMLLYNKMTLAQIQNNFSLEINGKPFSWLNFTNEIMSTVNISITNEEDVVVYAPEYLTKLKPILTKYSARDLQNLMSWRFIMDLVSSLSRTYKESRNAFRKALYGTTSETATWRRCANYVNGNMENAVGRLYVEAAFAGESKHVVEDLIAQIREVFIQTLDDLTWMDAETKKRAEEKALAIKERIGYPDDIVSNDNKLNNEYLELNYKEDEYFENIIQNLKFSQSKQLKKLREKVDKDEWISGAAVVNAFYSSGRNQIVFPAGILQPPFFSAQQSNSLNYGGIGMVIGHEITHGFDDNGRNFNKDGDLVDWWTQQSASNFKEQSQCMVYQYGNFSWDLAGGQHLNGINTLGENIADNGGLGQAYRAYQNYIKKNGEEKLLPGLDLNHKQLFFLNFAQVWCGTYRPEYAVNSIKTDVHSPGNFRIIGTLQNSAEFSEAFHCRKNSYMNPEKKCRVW
MMP2 (enzyme), sequence (P08253 110-660): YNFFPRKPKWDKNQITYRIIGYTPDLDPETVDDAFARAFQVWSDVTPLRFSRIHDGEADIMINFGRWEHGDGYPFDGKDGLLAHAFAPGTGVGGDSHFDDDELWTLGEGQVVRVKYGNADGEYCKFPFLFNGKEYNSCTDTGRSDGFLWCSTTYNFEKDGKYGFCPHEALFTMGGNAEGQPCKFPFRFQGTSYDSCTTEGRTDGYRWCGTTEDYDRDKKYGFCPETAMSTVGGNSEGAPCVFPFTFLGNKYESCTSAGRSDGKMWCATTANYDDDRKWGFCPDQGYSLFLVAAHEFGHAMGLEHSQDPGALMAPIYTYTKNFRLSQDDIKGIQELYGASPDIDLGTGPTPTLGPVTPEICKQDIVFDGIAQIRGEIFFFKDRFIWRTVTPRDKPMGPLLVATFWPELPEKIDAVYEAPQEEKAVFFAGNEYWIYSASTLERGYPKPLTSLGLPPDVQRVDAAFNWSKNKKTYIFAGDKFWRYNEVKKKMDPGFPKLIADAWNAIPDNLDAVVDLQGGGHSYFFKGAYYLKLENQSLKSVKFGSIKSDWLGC

EC50 (read off the curve) (Aβ(1-40) [1]) | EC50 (read off the curve) (Aβ(1-42) [2]) | EC50 of Aβ cleavage (ELISA-based assay of intact Aβ) (Aβ(1-40) [3]) | EC50 of Aβ cleavage (ELISA-based assay of intact Aβ) (Aβ(1-42) [4]) | EC50 of Aβ(1-40) cleavage (intact Aβ by ELISA) (Aβ(1-40) [5]) | EC50 of Aβ(1-42) cleavage (intact Aβ by ELISA) (Aβ(1-42) [6]) | Substance
0.09 µM | – | – | – | – | – | MMP2 (enzyme)
0.05 µM | 0.06 µM | – | – | – | – | NEP2 (enzyme)
– | – | 0.0001 µM | 0.0001 µM | – | – | insulin-degrading enzyme (IDE) (from UniProt P14735 42-1019)
– | – | 0.012 µM | 0.012 µM | 0.019 µM | 0.044 µM | neprolysin (NEP) (from UniProt P08473 52-750) (enzyme)
